Key:
human CD131 D146A = target: T1, human CD131 D146A (human, UniProt P32927 17-897); assay: flow cytometry, Fab on HEK-293T cells expressing the mutant; labels of this column stand one row too low, mutant assigned after shifting them up
T1 construct: whole, on cells
T1 sequence (looked up): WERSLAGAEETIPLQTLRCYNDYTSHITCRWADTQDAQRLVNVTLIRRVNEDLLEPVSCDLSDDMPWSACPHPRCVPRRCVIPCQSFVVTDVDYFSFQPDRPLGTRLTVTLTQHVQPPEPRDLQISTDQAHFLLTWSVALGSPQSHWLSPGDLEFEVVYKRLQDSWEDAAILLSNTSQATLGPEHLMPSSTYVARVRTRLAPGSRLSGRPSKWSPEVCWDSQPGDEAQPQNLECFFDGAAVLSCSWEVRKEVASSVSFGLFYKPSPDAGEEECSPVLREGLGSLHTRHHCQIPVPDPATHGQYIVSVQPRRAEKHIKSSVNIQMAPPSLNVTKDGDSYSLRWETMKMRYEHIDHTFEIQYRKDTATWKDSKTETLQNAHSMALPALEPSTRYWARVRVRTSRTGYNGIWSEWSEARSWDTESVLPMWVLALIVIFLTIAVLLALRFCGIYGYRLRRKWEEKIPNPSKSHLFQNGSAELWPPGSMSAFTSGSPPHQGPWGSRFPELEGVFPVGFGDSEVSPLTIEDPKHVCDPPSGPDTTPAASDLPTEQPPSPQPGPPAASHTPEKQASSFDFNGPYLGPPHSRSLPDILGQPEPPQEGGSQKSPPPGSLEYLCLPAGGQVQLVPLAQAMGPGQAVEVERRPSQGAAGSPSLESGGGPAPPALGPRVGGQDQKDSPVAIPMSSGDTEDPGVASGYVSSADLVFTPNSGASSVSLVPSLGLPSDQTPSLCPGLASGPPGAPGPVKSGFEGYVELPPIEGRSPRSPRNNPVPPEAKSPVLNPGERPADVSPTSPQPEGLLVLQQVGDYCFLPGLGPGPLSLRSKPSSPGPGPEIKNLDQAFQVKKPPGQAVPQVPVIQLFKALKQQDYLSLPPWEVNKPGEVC

human CD131 H147A = target: T2, human CD131 H147A (human, UniProt P32927 17-897); assay: as above
T2 construct: whole, on cells
T2 sequence (looked up): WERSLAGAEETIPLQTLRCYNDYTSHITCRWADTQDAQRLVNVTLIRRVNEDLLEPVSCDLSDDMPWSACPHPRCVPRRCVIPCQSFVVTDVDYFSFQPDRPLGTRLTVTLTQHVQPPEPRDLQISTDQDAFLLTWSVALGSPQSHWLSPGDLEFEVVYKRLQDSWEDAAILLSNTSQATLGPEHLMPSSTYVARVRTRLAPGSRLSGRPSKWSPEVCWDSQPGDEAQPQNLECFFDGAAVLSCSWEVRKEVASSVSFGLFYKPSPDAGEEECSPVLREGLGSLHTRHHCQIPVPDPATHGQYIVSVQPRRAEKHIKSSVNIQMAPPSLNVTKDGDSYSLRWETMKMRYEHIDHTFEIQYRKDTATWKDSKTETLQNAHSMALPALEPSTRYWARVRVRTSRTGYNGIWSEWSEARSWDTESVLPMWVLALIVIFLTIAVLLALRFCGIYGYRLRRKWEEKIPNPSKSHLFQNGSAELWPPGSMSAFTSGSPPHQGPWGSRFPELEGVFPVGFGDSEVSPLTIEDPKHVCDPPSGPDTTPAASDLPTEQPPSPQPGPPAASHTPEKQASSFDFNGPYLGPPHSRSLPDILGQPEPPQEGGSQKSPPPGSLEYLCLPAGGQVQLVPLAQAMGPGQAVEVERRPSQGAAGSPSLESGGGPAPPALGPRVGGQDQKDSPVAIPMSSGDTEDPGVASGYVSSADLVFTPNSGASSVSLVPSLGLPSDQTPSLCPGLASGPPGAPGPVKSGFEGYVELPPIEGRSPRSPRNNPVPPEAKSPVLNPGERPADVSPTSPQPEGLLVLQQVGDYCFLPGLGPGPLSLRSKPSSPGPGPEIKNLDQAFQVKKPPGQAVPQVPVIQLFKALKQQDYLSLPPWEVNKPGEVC

human CD131 W163A = target: T3, human CD131 W163A (human, UniProt P32927 17-897); assay: flow cytometry, Fab on HEK-293T cells expressing the mutant; labels of this column stand one row too low, mutant assigned after shifting them up (text: W163 is an epitope residue)
T3 construct: whole, on cells
T3 sequence (looked up): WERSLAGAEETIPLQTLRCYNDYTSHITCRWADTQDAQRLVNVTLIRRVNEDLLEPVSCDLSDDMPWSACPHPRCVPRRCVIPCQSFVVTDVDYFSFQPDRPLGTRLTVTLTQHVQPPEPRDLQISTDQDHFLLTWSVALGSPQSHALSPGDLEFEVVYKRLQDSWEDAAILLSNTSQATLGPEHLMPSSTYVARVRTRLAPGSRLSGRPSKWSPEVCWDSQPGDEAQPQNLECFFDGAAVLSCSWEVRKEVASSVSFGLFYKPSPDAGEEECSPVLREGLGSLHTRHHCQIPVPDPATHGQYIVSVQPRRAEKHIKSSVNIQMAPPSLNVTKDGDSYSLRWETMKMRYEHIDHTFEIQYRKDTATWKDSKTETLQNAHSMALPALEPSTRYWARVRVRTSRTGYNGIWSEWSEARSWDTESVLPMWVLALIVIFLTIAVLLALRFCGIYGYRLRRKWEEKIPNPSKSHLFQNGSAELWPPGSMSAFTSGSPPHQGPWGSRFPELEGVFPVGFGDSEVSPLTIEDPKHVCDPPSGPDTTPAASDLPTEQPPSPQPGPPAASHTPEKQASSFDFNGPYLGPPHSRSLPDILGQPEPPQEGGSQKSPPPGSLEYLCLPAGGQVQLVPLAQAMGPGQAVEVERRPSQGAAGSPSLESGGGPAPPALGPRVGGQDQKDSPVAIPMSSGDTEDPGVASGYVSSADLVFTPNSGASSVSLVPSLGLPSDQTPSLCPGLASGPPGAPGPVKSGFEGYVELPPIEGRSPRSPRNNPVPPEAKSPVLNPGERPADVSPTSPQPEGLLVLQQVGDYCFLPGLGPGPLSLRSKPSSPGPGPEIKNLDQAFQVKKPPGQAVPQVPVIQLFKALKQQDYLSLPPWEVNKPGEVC

B1: anti-CD131 antibody 131-B2, Fab (Fab, V domains shown)
VH: QVQLVQSGAEVKEPGASVKISCKASGYTFTNDYMHWVRQAPGQGLEWMGIINPTGGGTSYAQKFRGRVTMTRDTSTSTVYMELSSLRSEDTAVFYCARERYYGSGTYFNIGLWYFDLWGRGTLVTVSS
VL: not shown
notes: Fab made from the antibody by an enzyme treatment
Question: Which results are given for B1?
Answer: Binding Reactivity (% WT) (human CD131 D146A): 88.4 % WT; Binding Reactivity (% WT) (human CD131 H147A): 110 % WT; Binding Reactivity (% WT) (human CD131 W163A): -9 % WT

Reference: patent publication US20250092148A1 (Kyowa Kirin, published 2025)
